Laboratory results: patent US12411143B2, “CD146 and uses thereof as a biomarker and as a therapeutic target in the diagnosis and treatment of fibrosis” (ASSISTANCE PUBLIQUE HÔPITAUX DE MARSEILLE, priority 2018, dated 2025)

B1: rh-I5-13-sCD146: recombinant spliced variant of soluble CD146 containing introns 5 and 13, SEQ ID NO: 8 (protein, listed as Homo sapiens)
chain: MVYIVRQFLLYNVSGSVYLDQLIVLLTAKFSILRIAGSRVHHSPFSGHLDGCSFLSLQHSLHTSLDMSRHENVFLGLTLSSKSAGLKGFQLAFVPGLLQGTGGYLDGPLPTPVDNPRVGLEVGLRLSLPPLPPCPGVHIQSSQTVESSGLYTLQSILKAQLVKEDKDAQFYCELNYRLPSGNHMKESREVTVPVFYPTEKVWLEVEPVGMLKEGDRVEIRCLADGNPPPHFSISKQNPSTREAEEETTNDNGVLVLEPARKEHSGRYECQGLDLDTMISLLSEPQELLVNYVSDVRVSPAAPERQEGSSLTLTCEAESSQDLEFQWLREETGQVLERGPVLQLHDLKREAGGGYRCVASVPSIPGLNRTQLVNVAIFGPPWMAFKERKVWVKENMVLNLSCEASGHPRPTISWNVNGTASEQDQDPQRVLSTLNVLVTPELLETGVECTASNDLGKNTSILFLELVNLTTLTPDSNTTTGLSTSTASPHTRANSTSTGKPGLAREQGCARASFLPCPSPESPVQKGE
B2: rh-I10-sCD146: recombinant spliced variant of soluble CD146 containing intron 10, SEQ ID NO: 9 (protein, listed as Homo sapiens)
chain: MGLPRLVCAFLLAACCCCPRVAGVPGEAEQPAPELVEVEVGSTALLKCGLSQSQGNLSHVDWFSVHKEKRTLIFRVRQGQGQSEPGEYEQRLSLQDRGATLALTQVTPQDERIFLCQGKRPRSQEYRIQLRVYKAPEEPNIQVNPLGIPVNSKEPEEVATCVGRNGYPIPQVIWYKNGRPLKEEKNRVHIQSSQTVESSGLYTLQSILKAQLVKEDKDAQFYCELNYRLPSGNHMKESREVTVPVFYPTEKVWLEVEPVGMLKEGDRVEIRCLADGNPPPHFSISKQNPSTREAEEETTNDNGVLVLEPARKEHSGRYECQGLDLDTMISLLSEPQELLVNYVSDVRVSPAAPERQEGSSLTLTCEAESSQDLEFQWLREETGQVLERGPVLQLHDLKREAGGGYRCVASVPSIPGLNRTQLVNVAIFGEALPLGRDQVTPSGVVFKLFDKKPPAALGSSGAEGEAG

Tests used:
[1] = system: b-catenin/TCF transcription activity; assay: b-catenin/TCF transcription assay (luciferase) in Mouse Embryonic Fibroblasts; type: cell-based; settings: MEF from CD146 KO mice treated with bleomycin
Experimental: B: Activation of canonical Wnt signalling (b-catenin/TCF transcription activity; Luciferase assay) was estimated in Mouse Embryonic Fibroblasts (MEF) from CD146 KO and WT mice. MEF were treated or not with bleomycin in the presence or absence of shed sCD146, I5-13-sCD146 or I10-sCD146. Results are the mean values +/−SEM of 5 independent experiments.
HUVEC were obtained as previously described and were cultured in EGM2 medium (Kaspi et al., 2017). MEF (Mouse Embryonic Fibroblasts) were isolated from day 13. Embryos from CD146 KO or WT mice were isolated and cultured as previously described (Xu J., 2005).
Luciferase assay was performed as previously described (Kaspi et al., 2017).

[2] = system: mouse ischemic hind limb model; assay: Mouse hind limb ischemia model; type: in vivo; settings: for blood flow (laser-Doppler): 2 μg locally twice a week for 28 days; for blood flow (laser-Doppler) / vascularisation of muscle (isolectin B4 labelling): compared to PBS; for vascularisation of muscle (isolectin B4 labelling): 28 days after surgery; for number of vessels in the legs (angiography pictures) / vessel density in calf, thigh and whole leg (angiography quantification): D28, compared to PBS
Experimental: A: Ischemic mice were treated with PBS or 2 μg of rh-sCD146/rh-I10-sCD146/rh-I5-13-sCD146 or VEGF. Blood perfusion rate was monitored by laser-Doppler. Results are mean values of 6 different animals in each group and expressed as % of the control leg. *, **, ***: P<0.05, P<0.01, P<0.001, I10-sCD146 vs. PBS; $$, $$$: P<0.01, P<0.001, I5-13-sCD146 vs. PBS; ##, ###: P<0.01, P<0.001, shed sCD146 vs. PBS; £: P<0.05, VEGF vs. PBS.
B: Blood vessels examination in hind limb muscle sections from control (PBS) and shed rh-sCD146/rh-I10-sCD146/rh-I5-13-sCD146 treated animals 28 days after surgery. Vessels are labelled with isolectin B4.**, ***: P<0.01, P<0.001, experimental vs control. $: P<0.05, I10-sCD146 vs I5-13-sCD146.
C: Angiographic pictures of control (PBS) and shed sCD146/I10-sCD146/I5-13-sCD146 treated animals at D28. Pictures are representative of the 6 animals in each group. Average of the density of the vessels was expressed as right versus left leg in the different parts of the legs (calf, thigh) and in the whole leg. *, **: P<0.01, P<0.001 experimental vs PBS in calf; $: P<0.05, experimental vs PBS in thigh; #, ##: P<0.05, P<0.01, experimental vs PBS in whole leg.
In sections of muscles from ischemic mice, vascularisation was visualized with isolectin B4 (Lifetechnologies) ( 1/100). Tissue sections were examined by fluorescence microscopy (Leica sp5, Leica, Nanterre, France).
Female mice were subjected to unilateral hind limb ischemia by complete resection of the entire left femoral artery. After surgery, animals were split in four treatment groups: one control group injected in ischemic adductor muscles twice a week with PBS for 28 days; three experimental groups treated as the control groups with the three different recombinant human soluble CD146 (rh-sCD146, rh-I5-13-sCD146, rh-I10-sCD146) 2 μg.
The ratio of the ischemic versus normal hind limb blood flow was measured using a laser doppler blood flow analyzer. At different time points post-surgery (days 1, 3, 7, 14, 21 and 28), animals were subjected to 3 consecutive laser scannings over the regions of interest (leg and feet). Blood flow was expressed as the ischemic versus normal hind limb ratio.
The animals were deeply anesthetised with mix of Ketamine Xylasine (100 mg/kg and 10 mg/kg respectively) and perfused intracardially with 2 ml of lipiodole. CT 3D images were obtained with a microPET/microCT rodent model scanner (nanoPET/CTO, Mediso) with features below: 70 kVp energy, exposure time of 300 ms and 720 projections and were quantified.

[3] = system: ECFC; assay: mRNA expression of sCD146 isoforms in ECFC (qPCR); type: cell-based, human; settings: for expression of short CD146, long CD146, I5-13-sCD146 and I10-sCD146 at the mRNA level: endothelial cells treated with recombinant proteins
Experimental: C: The mRNA expression of I10-sCD146 and I5-13-sCD146 isoforms was analyzed by qPCR in ECFC after treatment of the cells for 24 h with the recombinant shed soluble CD146 50 ng/ml, VEGF 20 ng/ml, TNF 20 ng/ml, TGF beta 5 ng/ml, and netrin 50 ng/ml. Cells were also treated for 15 min with WNT5a 200 ng/ml and 1 h with WNT3a 50 ng/ml. Results are the mean values +/−SEM of 3 experiments. *: P<0.05, experimental vs Control.
Total cellular RNA was isolated from cells, reverse transcribed into cDNA and the resulting cDNA was subjected to qPCR.

[4] = system: ECFC; assay: Endothelial cell tube formation in spheroids; type: cell-based, human; settings: recombinant proteins 50 ng/ml
Experimental: E: Effect of recombinant proteins I10-sCD146, I5-13-sCD146 and shed sCD146 50 ng/ml on the number of sprouts, branched points and cumulative sprout length in spheroid experiments realized with ECFC. Results were compared to VEGF 20 ng/ml and complete EGM2-MV medium.
Formation of spheroid experiments was performed as previously described (Korff T. et al., 2001).

[5] = system: CD146 KO mouse model of Systemic Sclerosis; assay: CD146 KO mouse model of Systemic Sclerosis induced by bleomycin; type: in vivo; settings: bleomycin-treated animals, subcutaneous injection
Experimental: C: Dermal thickness was evaluated in a CD146 KO mouse model of Systemic Sclerosis induced by subcutaneous injection of bleomycin. The effect of shed sCD146, I5-13-sCD146 and I10-sCD146 was estimated and the average of 4-5 different animals was given. Representative pictures are also shown.
D: The aspect of the skin is shown in the different CD146 KO mice treated with bleomycin and injected or not with shed sCD146, I10-sCD146 and I5-13-sCD146.
E: Blood vessels examination in skin of animals treated or not with shed sCD146/I10-sCD146/I5-13-sCD146. Vessels are labelled with isolectin B4. Results are representative of 3 different experiments in the 4-5 animals.
Male CD146 KO mice (11-16 weeks) were treated with subcutaneous bleomycin and were compared with littermates WT mice as previously described (Kaspi et al., 2017).
Mice skin sections were fixed in 4% formalin and embedded into paraffin. Dermal thickness was quantified using a stereological method using a Merz grid as previously described (Kaspi et al., 2017).

Molecule	b-catenin/TCF transcription activity [1]	blood flow (laser-Doppler) [2]	vascularisation of muscle (isolectin B4 labelling) [2]	number of vessels in the legs (angiography pictures) [2]	vessel density in calf, thigh and whole leg (angiography quantification) [2]	I5-13-sCD146 mRNA level ([3]; ECFC, 24 h treatment (WNT5a 15 min, WNT3a 1 h))	pseudo-capillary generation (number of sprouts, cumulative sprout length) [4]	dermal thickness [5]	vascularisation of the skin at macroscopic level [5]	vessel density in skin (isolectin-b4 labelling) [5]	expression of short CD146, long CD146, I5-13-sCD146 and I10-sCD146 at the mRNA level [3]	time after first injection at which a significant effect on blood flow was observed ([2]; 2 μg locally twice a week)
sCD146: recombinant human soluble form of CD146 corresponding to the shed sCD146, obtained from Biocytex	decreased b-catenin/TCF transcription activity	able to increase blood flow	vascularisation was increased	increase in the number of vessels	significantly increased	not modified	increased the ability to generate pseudo-capillaries	reduced this dermal thickness to the value observed in control animals	increased vascularisation	significantly reversed	–	–
B1	increased it	able to increase blood flow	vascularisation was increased	increase in the number of vessels	significantly increased	–	increased the ability to generate pseudo-capillaries	no significant effect	did not	no effect	did not modify the expression	–
B2	decreased b-catenin/TCF transcription activity	able to increase blood flow	vascularisation was increased	increase in the number of vessels	significantly increased	–	increased the ability to generate pseudo-capillaries	reduced this dermal thickness to the value observed in control animals	increased vascularisation	significantly reversed	did not modify the expression	3 days
